Test results: patent publication US20150344570A1 (published 2015)

What was measured:
[1] = target: T1, FcγRIIa R (FcγRIIa allotype with Arg at position 131), extracellular domain with C-terminal His tag (human, UniProt P12318 34-217); assay: SPR (Biacore), antibody captured, FcγR analyte; vs GpH7-A5/GpH7-B3/GpL16-k0 = 100
T1 construct: extracellular domain; made in FreeStyle293 cells; analyte in the Biacore assay; also called FcγRIIa type R; 2aR
T1 sequence (looked up): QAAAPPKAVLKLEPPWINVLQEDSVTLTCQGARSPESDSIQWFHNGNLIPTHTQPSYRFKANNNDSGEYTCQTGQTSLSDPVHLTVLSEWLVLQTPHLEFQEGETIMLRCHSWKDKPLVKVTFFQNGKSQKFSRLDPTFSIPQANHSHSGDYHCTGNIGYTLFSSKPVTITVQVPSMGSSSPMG

[2] = target: T2, FcγRIIb, extracellular domain with C-terminal His tag (human, UniProt P31994 43-217); assay: as above
T2 construct: extracellular domain; made in FreeStyle293 cells; analyte in the Biacore assay; also called 2b; FcgRIIb
T2 sequence (looked up): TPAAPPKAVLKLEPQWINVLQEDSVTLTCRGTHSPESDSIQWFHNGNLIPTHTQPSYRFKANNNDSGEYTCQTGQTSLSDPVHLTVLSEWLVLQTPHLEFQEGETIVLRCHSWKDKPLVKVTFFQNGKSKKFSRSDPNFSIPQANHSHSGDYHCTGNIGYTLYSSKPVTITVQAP

[3] = target: T1, FcγRIIa R (FcγRIIa allotype with Arg at …); assay: SPR (Biacore); He/Con_2aR divided by He/Con_2b, binding to FcγRIIa R against binding to FcγRIIb
Experimental: (§1) The heterodimerized antibodies He Abs in which one of the H chains was introduced with an alteration were assayed for their binding activities to each activating FcγR and inhibitory FcγR according to the method described in Example 4. […] The activating FcγRs in FIGS. 26, 27, 28, and 29 are FcγRIa, FcγRIIa (R), FcγRIIa (H), and FcγRIIIa, respectively.
(§2) Analysis of interaction between objective antibody and the FcγR was carried out using Biacore T100 (GE Healthcare). HBS-EP+ (GE Healthcare) was used as the running buffer, and the measurement temperature was set to 25° C. Chips produced by immobilizing the antigen peptide by the amine coupling method to a Series S Sencor Chip CM5 (GE Healthcare), or alternatively, chips produced by allowing preliminarily biotinylated antigen peptides to interact with and immobilize onto a Series S Sensor Chip SA (certified) (GE Healthcare) were used. Antibodies of interest were captured onto an antigen peptide-immobilized chip, and allowed to interact to each FcγR diluted with running buffer. To regenerate and repeatedly use the chip, the antibodies captured on the chip were washed off by reacting 10 mM glycine-HCl, pH 1.5.

[4] = target: T3, FcγRIIIa extracellular domain with C-terminal His tag (human, UniProt P08637 17-208); assay: SPR (Biacore), antibody captured, FcγR as analyte; binding activity relative to control heterodimerized antibody
T3 construct: extracellular domain; also called FcgRIIIa; 3a; not shown: His tag attached to the C terminus
Experimental: as §1, §2

[5] = target: T4, FcγRIIb extracellular domain with C-terminal His tag (human, UniProt P31994 43-217); assay: as above
T4 construct: extracellular domain; Soluble receptor expressed in FreeStyle293 cells and used as analyte in Biacore; also called FcgRIIb; 2b; not shown: His tag attached to the C terminus
T4 sequence (looked up): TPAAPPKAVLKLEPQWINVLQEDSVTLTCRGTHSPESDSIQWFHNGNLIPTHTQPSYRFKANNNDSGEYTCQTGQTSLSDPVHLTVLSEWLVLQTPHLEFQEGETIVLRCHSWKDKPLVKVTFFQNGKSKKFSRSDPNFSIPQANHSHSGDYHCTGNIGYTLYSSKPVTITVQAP
Experimental: as §1, §2

[6] = target: T3, FcγRIIIa extracellular domain with …; assay: SPR (Biacore); He/Con_3a divided by He/Con_2b (FcγRIIIa over FcγRIIb)
Experimental: as §1, §2

T3 sequence (P08637 17-208): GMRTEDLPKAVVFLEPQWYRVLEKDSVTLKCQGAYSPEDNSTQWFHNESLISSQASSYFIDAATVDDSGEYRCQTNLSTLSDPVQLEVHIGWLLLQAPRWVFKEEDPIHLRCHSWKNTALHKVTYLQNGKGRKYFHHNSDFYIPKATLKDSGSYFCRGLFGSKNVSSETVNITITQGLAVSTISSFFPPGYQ

B1: GpH7-A5/GpH7-B3 variant L234_12R/GpL16-k0 (antibody, human IgG1, kappa)
heavy 1: not shown
heavy 2: not shown
light: DIVMTQSPLSLPVTPGEPASISCQASESLVHSNRNTYLHWYLQKPGQSPQLLIYKVSNRFSGVPDRFSGSGSGTDFTLKISRVEAEDVGVYYCSQNTHVPPTFGQGTKVEIERTVAAPSVFIFPPSDEQLKSGTASVVCLLNNFYPREAKVQWKVDNALQSGNSQESVTEQDSKDSTYSLSSTLTLSKADYEKHKVYACEVTHQGLSSPVTKSFNRGEC
notes: heterodimerized IgG1, mutation in one H chain only; also called He Ab
B1 was tested, and the He/Con_2aR [1] was 29.9 relative (HeCon Ab = 100), the He/Con_2b [2] was 18.9 relative (HeCon Ab = 100) and the “He_2aR/2b (IIaR/IIb)” value [3] was 1.58 ratio.

B2: GpH7-A5/GpH7-B3 variant D270_01G/GpL16-k0 (antibody, human IgG1, kappa)
heavy 1: not shown
heavy 2: not shown
light: DIVMTQSPLSLPVTPGEPASISCQASESLVHSNRNTYLHWYLQKPGQSPQLLIYKVSNRFSGVPDRFSGSGSGTDFTLKISRVEAEDVGVYYCSQNTHVPPTFGQGTKVEIERTVAAPSVFIFPPSDEQLKSGTASVVCLLNNFYPREAKVQWKVDNALQSGNSQESVTEQDSKDSTYSLSSTLTLSKADYEKHKVYACEVTHQGLSSPVTKSFNRGEC
notes: Heterodimerized anti-glypican-3 IgG1 with the alteration in only one H chain; also called He Ab
In the case of B2, the He/Con_3a [4] is reported as 38.5 % of GpH7-A5/GpH7-B3/GpL16-k0 (=100), the He/Con_2b [5] is reported as 30.5 % of GpH7-A5/GpH7-B3/GpL16-k0 (=100) and the He_3a/2b [6] is reported as 1.26 ratio.

B3: GpH7-A5/GpH7-B3 variant L235_11K/GpL16-k0 (antibody, human IgG1, kappa)
heavy 1: not shown
heavy 2: not shown
light: DIVMTQSPLSLPVTPGEPASISCQASESLVHSNRNTYLHWYLQKPGQSPQLLIYKVSNRFSGVPDRFSGSGSGTDFTLKISRVEAEDVGVYYCSQNTHVPPTFGQGTKVEIERTVAAPSVFIFPPSDEQLKSGTASVVCLLNNFYPREAKVQWKVDNALQSGNSQESVTEQDSKDSTYSLSSTLTLSKADYEKHKVYACEVTHQGLSSPVTKSFNRGEC
notes: as for B1
B3 was tested, and the He/Con_2aR [1] was 10.8 relative (HeCon Ab = 100), the He/Con_2b [2] was 6.3 relative (HeCon Ab = 100) and the “He_2aR/2b (IIaR/IIb)” value [3] was 1.72 ratio.

B4: GpH7-A5/GpH7-B3 variant L235_01G/GpL16-k0 (antibody, human IgG1, kappa)
heavy 1: not shown
heavy 2: not shown
light: DIVMTQSPLSLPVTPGEPASISCQASESLVHSNRNTYLHWYLQKPGQSPQLLIYKVSNRFSGVPDRFSGSGSGTDFTLKISRVEAEDVGVYYCSQNTHVPPTFGQGTKVEIERTVAAPSVFIFPPSDEQLKSGTASVVCLLNNFYPREAKVQWKVDNALQSGNSQESVTEQDSKDSTYSLSSTLTLSKADYEKHKVYACEVTHQGLSSPVTKSFNRGEC
notes: as for B1
In the case of B4, the He/Con_2aR [1] is reported as 48.5 relative (HeCon Ab = 100), the He/Con_2b [2] is reported as 35.4 relative (HeCon Ab = 100) and the “He_2aR/2b (IIaR/IIb)” value [3] is reported as 1.37 ratio.

B5: GpH7-A5/GpH7-B3 variant L235_18N/GpL16-k0 (antibody, human IgG1, kappa)
heavy 1: not shown
heavy 2: not shown
light: DIVMTQSPLSLPVTPGEPASISCQASESLVHSNRNTYLHWYLQKPGQSPQLLIYKVSNRFSGVPDRFSGSGSGTDFTLKISRVEAEDVGVYYCSQNTHVPPTFGQGTKVEIERTVAAPSVFIFPPSDEQLKSGTASVVCLLNNFYPREAKVQWKVDNALQSGNSQESVTEQDSKDSTYSLSSTLTLSKADYEKHKVYACEVTHQGLSSPVTKSFNRGEC
notes: as for B1
With B5 the He/Con_2aR [1] was 66.5 relative (HeCon Ab = 100), the He/Con_2b [2] was 54.9 relative (HeCon Ab = 100) and the “He_2aR/2b (IIaR/IIb)” value [3] was 1.21 ratio.

B6: GpH7-A5/GpH7-B3 variant D270_07I/GpL16-k0 (antibody, human IgG1, kappa)
heavy 1: not shown
heavy 2: not shown
light: DIVMTQSPLSLPVTPGEPASISCQASESLVHSNRNTYLHWYLQKPGQSPQLLIYKVSNRFSGVPDRFSGSGSGTDFTLKISRVEAEDVGVYYCSQNTHVPPTFGQGTKVEIERTVAAPSVFIFPPSDEQLKSGTASVVCLLNNFYPREAKVQWKVDNALQSGNSQESVTEQDSKDSTYSLSSTLTLSKADYEKHKVYACEVTHQGLSSPVTKSFNRGEC
notes: as for B2
For B6, the He/Con_3a [4] was 69.6 % of GpH7-A5/GpH7-B3/GpL16-k0 (=100), the He/Con_2b [5] was 41.5 % of GpH7-A5/GpH7-B3/GpL16-k0 (=100) and the He_3a/2b [6] was 1.68 ratio.

B7: GpH7-A5/GpH7-B3 variant L235_19Q/GpL16-k0 (antibody, human IgG1, kappa)
heavy 1: not shown
heavy 2: not shown
light: DIVMTQSPLSLPVTPGEPASISCQASESLVHSNRNTYLHWYLQKPGQSPQLLIYKVSNRFSGVPDRFSGSGSGTDFTLKISRVEAEDVGVYYCSQNTHVPPTFGQGTKVEIERTVAAPSVFIFPPSDEQLKSGTASVVCLLNNFYPREAKVQWKVDNALQSGNSQESVTEQDSKDSTYSLSSTLTLSKADYEKHKVYACEVTHQGLSSPVTKSFNRGEC
notes: as for B1
For B7, the He/Con_2aR [1] was 56.2 relative (HeCon Ab = 100), the He/Con_2b [2] was 42.6 relative (HeCon Ab = 100) and the “He_2aR/2b (IIaR/IIb)” value [3] was 1.32 ratio.
